Laboratory results from patent US20220135684A1 (Xencor, published 2022).

Experiments:
[1] = biological target: T1, cell-surface CD28 on human PBMCs (human, UniProt P10747 19-220); experiment: flow cytometry on human PBMCs, anti-human Fc secondary
T1 construct: whole, on cells

human CD28 [2] = biological target: T2, human CD28 (human, UniProt P10747 19-152); experiment: Octet (BLI), scFv arm in a bsAb; value told in the text
T2 construct: also called Cluster of Differentiation 28; Tp44

human CD28 [3] = biological target: T2, human CD28; experiment: Octet (BLI), scFv arm in the bsAb; value told in the text
human PDL1 antigen = biological target: T3, human PDL1 antigen (human, UniProt Q9NZQ7 19-238); experiment: Biacore (SPR), Fab arm in the bsAb; value told in the text
T3 construct: they are put here

B1: XENP28428 (antibody, V domains shown)
VH: EVQLLESGGGLVQPGGSLRLSCAASGFTFSSYAMSWVRQAPGKGLEWVSTISGSGDSTYYADSVKGRFTISRDNSKNTLYLQMNSLRAEDTAVYYCAKSGPGLRQVGFDYWGQGTLVTVSS
VL: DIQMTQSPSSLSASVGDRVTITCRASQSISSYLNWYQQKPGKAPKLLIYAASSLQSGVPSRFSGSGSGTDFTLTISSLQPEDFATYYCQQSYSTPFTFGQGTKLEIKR
notes: Bivalent mAb, IgG1 backbone with E233P/L234V/L235A/G236del/S267K ablation variant; also called anti-CD28 mAb based on clone 1A7; parental αCD28 mAb 1A7; copies: 2 + 2
- binding result [1]: binds

B2: XENP37261 (bispecific antibody)
heavy: EVQLLESGGGLVQPGGSLRLSCAASGFTFSSYDMSWVRQAPGKRLEWVSTISSGGSFTHYPDSVKGRFTISRDNSKNTLYLQMNSLRAEDTAVYYCVRRSGDWYFDVWGAGTTVTVSSASTKGPSVFPLAPSSKSTSGGTAALGCLVKDYFPEPVTVSWNSGALTSGVHTFPAVLQSSGLYSLSSVVTVPSSSLGTQTYICNVNHKPSDTKVDKKVEPKSCDKTHTCPPCPAPPVAGPSVFLFPPKPKDTLMISRTPEVTCVVVDVKHEDPEVKFNWYVDGVEVHNAKTKPREEEYNSTYRVVSVLTVLHQDWLNGKEYKCKVSNKALPAPIEKTISKAKGQPREPQVYTLPPSREEMTKNQVSLTCDVSGFYPSDIAVEWESDGQPENNYKTTPPVLDSDGSFFLYSKLTVDKSRWEQGDVFSCSVMHEALHNHYTQKSLSLSPGK
scFv-Fc: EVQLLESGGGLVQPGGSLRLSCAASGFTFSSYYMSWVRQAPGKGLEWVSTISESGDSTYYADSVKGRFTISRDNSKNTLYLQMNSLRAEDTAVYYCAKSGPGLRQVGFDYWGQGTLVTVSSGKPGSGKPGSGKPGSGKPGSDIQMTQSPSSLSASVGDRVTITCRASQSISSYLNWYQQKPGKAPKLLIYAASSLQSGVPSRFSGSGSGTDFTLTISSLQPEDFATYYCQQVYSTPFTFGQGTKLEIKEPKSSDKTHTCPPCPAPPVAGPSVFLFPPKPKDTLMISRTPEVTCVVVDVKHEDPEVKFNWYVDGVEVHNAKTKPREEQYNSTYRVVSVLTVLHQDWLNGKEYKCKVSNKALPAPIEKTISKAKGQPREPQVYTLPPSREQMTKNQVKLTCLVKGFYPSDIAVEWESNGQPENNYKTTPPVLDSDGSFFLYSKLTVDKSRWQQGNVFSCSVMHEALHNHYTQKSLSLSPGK
light: EIVLTQSPGTLSLSPGERATLSCRVSSSISSSNLHWYQQKPGQSPRPLIYGTSNLASGVPVRFSGSGSGTDYTLTISRLEPEDFAVYYCQQWSSYPLYTFGGGTKVEIKRTVAAPSVFIFPPSDEQLKSGTASVVCLLNNFYPREAKVQWKVDNALQSGNSQESVTEQDSKDSTYSLSSTLTLSKADYEKHKVYACEVTHQGLSSPVTKSFNRGEC
notes: 1+1 Fab-scFv-Fc format; also called αPDL1×αCD28 bsAb; 1A7_H1.14_L1.71
- Kd (human CD28 [2]): 37 nM
- Kd (human CD28 [3]): 36 nM

B3: XENP38514 (bispecific antibody)
heavy: EVQLLESGGGLVQPGGSLRLSCAASGFTFSVYDMSWVRQAPGKRLEWVSTISSGGSFTHYPDSVKGRFTISRDNSKNTLYLQMNSLRAEDTAVYYCVRRSLDWYFDVWGAGTTVTVSSASTKGPSVFPLAPSSKSTSGGTAALGCLVKDYFPEPVTVSWNSGALTSGVHTFPAVLQSSGLYSLSSVVTVPSSSLGTQTYICNVNHKPSDTKVDKKVEPKSCDKTHTCPPCPAPPVAGPSVFLFPPKPKDTLMISRTPEVTCVVVDVKHEDPEVKFNWYVDGVEVHNAKTKPREEEYNSTYRVVSVLTVLHQDWLNGKEYKCKVSNKALPAPIEKTISKAKGQPREPQVYTLPPSREEMTKNQVSLTCDVSGFYPSDIAVEWESDGQPENNYKTTPPVLDSDGSFFLYSKLTVDKSRWEQGDVFSCSVMHEALHNHYTQKSLSLSPGK
scFv-Fc: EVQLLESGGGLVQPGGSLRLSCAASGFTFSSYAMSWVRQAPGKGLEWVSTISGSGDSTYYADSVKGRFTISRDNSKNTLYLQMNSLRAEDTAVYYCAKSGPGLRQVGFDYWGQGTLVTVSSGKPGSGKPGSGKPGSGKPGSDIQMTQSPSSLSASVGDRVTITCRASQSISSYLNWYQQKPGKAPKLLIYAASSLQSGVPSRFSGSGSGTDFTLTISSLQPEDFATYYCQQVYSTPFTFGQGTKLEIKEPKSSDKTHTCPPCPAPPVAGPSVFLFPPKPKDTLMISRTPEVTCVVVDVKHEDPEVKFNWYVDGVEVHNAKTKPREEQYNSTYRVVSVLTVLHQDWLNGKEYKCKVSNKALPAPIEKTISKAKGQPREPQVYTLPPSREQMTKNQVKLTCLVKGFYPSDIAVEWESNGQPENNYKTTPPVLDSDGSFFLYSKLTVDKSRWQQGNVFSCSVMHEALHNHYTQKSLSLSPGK
light: EIVLTQSPGTLSLSPGERATLSCRVSSSIQSTNLHWYQQKPGQSPRPLIYGTSVLATGVPVRFSGSGSGTDYTLTISRLEPEDFAVYYCQQWSSYPLYTFGGGTKVEIKRTVAAPSVFIFPPSDEQLKSGTASVVCLLNNFYPREAKVQWKVDNALQSGNSQESVTEQDSKDSTYSLSSTLTLSKADYEKHKVYACEVTHQGLSSPVTKSFNRGEC
- Kd (human PDL1 antigen): 0.17 nM

B4: XENP27181 (antibody, human IgG1, kappa, V domains shown)
VH: QVQLQESGPGLVKPSETLSLTCAVSGFSLTSYGVHWIRQPPGKGLEWLGVIWPGGGTNFNSALMSRLTISEDTSKNQVSLKLSSVTAADTAVYYCARDRAYGNYLYAMDYWGQGTLVTVSS
VL: DIQMTQSPSSLSASVGDRVTITCRASESVEYYVTSLMQWYQQKPGKAPKLLIYAASNVDSGVPSRFSGSGSGTDFTLTISSLQPEDIATYYCQQSRKVPFTFGGGTKVEIKR
notes: Bivalent mAb, IgG1 backbone with E233P/L234V/L235A/G236del/S267K ablation variant; also called HuTN228; prior art anti-CD28 mAb HuTN228; copies: 2 + 2
- binding result [1]: binds
